Source: the supplement of paper PMC5998384

Key:
HeLa Kyoto [1] = experiment: melting temperature (median over replicates), in situ; higher = more thermally stable
HeLa Kyoto [2] = experiment: solubility change mitosis vs G1/S (difference of NP-40 vs SDS log2 ratios) (log2 ratio difference); higher = more soluble in mitosis
HeLa Kyoto [3] = experiment: thermal stability score vs G1/S (z-score of summed log2 fold changes over temperatures); higher = more thermally stable than in G1/S
HeLa Kyoto [4] = experiment: solubility in G1/S (NP-40 vs SDS abundance) (log2 ratio); higher = more soluble; details: cell cycle stage: G1/S
[5] = cell cycle stage: early G1 (4.5 h after nocodazole release)
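For melting temperature (median over replicates), in situ in this document: HeLa Kyoto cells synchronized by double thymidine or nocodazole block, proteins quantified by TMT10plex mass spectrometry, three independent biological replicates.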
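For solubility change mitosis vs G1/S (difference of NP-40 vs SDS log2 ratios) in this document: synchronized HeLa Kyoto cells (double thymidine block for G1/S, nocodazole release for mitosis), protein amounts in NP-40 versus SDS lysates quantified by mass spectrometry, three biological replicates.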
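For solubility in G1/S (NP-40 vs SDS abundance) in this document: HeLa Kyoto cells arrested at G1/S by double thymidine block, proteins quantified by TMT10plex mass spectrometry in mild NP-40 versus SDS extracts, three biological replicates.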
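For thermal stability score vs G1/S (z-score of summed log2 fold changes over temperatures) in this document: synchronized HeLa Kyoto cells, proteins quantified by TMT10plex mass spectrometry, three biological replicates, mitosis taken 0.5 h after nocodazole release, G1/S directly after double thymidine block.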

## MENSSAASASSEAGSSRSQEIEELERFIDSYVLEYQVQGLLADKTEGDGESERTQSHISQWTADCSEPLDSSCSFSRGRAPPQQNGSKDNSLDMLGTDIWAANTFDSFSGATWDLQPEKLDFTQFHRKVRHTPKQPLPHIDREGCGKGKLEDGDGINLNDIEKVLPAWQGYHPMPHEVEIAHTKKLFRRRRNDRRRQQRPPGGNKPQQHGDHQPGSAKHNRDHQKSYQGGSAPHPSGRPTHHGYSQNRRWHHGNMKHPPGDKGEAGAHRNAKETMTIENPKLEDTAGDTGHSSLEAPRSPDTLAPVASERLPPQQSGGPEVETKRKDSILPERIGERPKITLLQSSKDRLRRRLKEKDEVAVETTTPQQNKMDKLIEILNSMRNNSSDVDTKLTTFMEEAQNSTNSEEMLGEIVRTIYQKAVSDRSFAFTAAKLCDKMALFMVEGTKFRSLLLNMLQKDFTVREELQQQDVERWLGFITFLCEVFGTMRSSTGEPFRVLVCPIYTCLRELLQSQDVKEDAVLCCSMELQSTGRLLEEQLPEMMTELLASARDKMLCPSESMLTRSLLLEVIELHANSWNPLTPPITQYYNRTIQKLTA [CTIF]
HeLa Kyoto [1]; cell cycle stage: G1/S
  melting temperature: 52.1 °C
HeLa Kyoto [2]
  solubility change mitosis (log2): 0.157
HeLa Kyoto [3]; [5]
  thermal stability score: -0.292
HeLa Kyoto [3]; cell cycle stage: mitosis
  thermal stability score: 0.109
HeLa Kyoto [4]
  solubility in G1/S (log2): 0.0528

## MEPAMEPETLEARINRATNPLNKELDWASINGFCEQLNEDFEGPPLATRLLAHKIQSPQEWEAIQALTVLETCMKSCGKRFHDEVGKFRFLNELIKVVSPKYLGSRTSEKVKNKILELLYSWTVGLPEEVKIAEAYQMLKKQGIVKSDPKLPDDTTFPLPPPRPKNVIFEDEEKSKMLARLLKSSHPEDLRAANKLIKEMVQEDQKRMEKISKRVNAIEEVNNNVKLLTEMVMSHSQGGAAAGSSEDLMKELYQRCERMRPTLFRLASDTEDNDEALAEILQANDNLTQVINLYKQLVRGEEVNGDATAGSIPGSTSALLDLSGLDLPPAGTTYPAMPTRPGEQASPEQPSASVSLLDDELMSLGLSDPTPPSGPSLDGTGWNSFQSSDATEPPAPALAQAPSMESRPPAQTSLPASSGLDDLDLLGKTLLQQSLPPESQQVRWEKQQPTPRLTLRDLQNKSSSCSSPSSSATSLLHTVSPEPPRPPQQPVPTELSLASITVPLESIKPSNILPVTVYDQHGFRILFHFARDPLPGRSDVLVVVVSMLSTAPQPIRNIVFQSAVPKVMKVKLQPPSGTELPAFNPIVHPSAITQVLLLANPQKEKVRLRYKLTFTMGDQTYNEMGDVDQFPPPETWGSL [GGA1]
HeLa Kyoto [1]; cell cycle stage: G1/S
  melting temperature: 51.6 °C
HeLa Kyoto [1]; cell cycle stage: mitosis
  melting temperature: 51.6 °C
HeLa Kyoto [2]
  solubility change mitosis (log2): -0.28
HeLa Kyoto [3]; [5]
  thermal stability score: -0.271
HeLa Kyoto [3]; cell cycle stage: mitosis
  thermal stability score: -0.0298
HeLa Kyoto [4]
  solubility in G1/S (log2): 0.556

## MEPAPARSPRPQQDPARPQEPTMPPPETPSEGRQPSPSPSPTERAPASEEEFQFLRCQQCQAEAKCPKLLPCLHTLCSGCLEASGMQCPICQAPWPLGADTPALDNVFFESLQRRLSVYRQIVDAQAVCTRCKESADFWCFECEQLLCAKCFEAHQWFLKHEARPLAELRNQSVREFLDGTRKTNNIFCSNPNHRTPTLTSIYCRGCSKPLCCSCALLDSSHSELKCDISAEIQQRQEELDAMTQALQEQDSAFGAVHAQMHAAVGQLGRARAETEELIRERVRQVVAHVRAQERELLEAVDARYQRDYEEMASRLGRLDAVLQRIRTGSALVQRMKCYASDQEVLDMHGFLRQALCRLRQEEPQSLQAAVRTDGFDEFKVRLQDLSSCITQGKDAAVSKKASPEAASTPRDPIDVDLPEEAERVKAQVQALGLAEAQPMAVVQSVPGAHPVPVYAFSIKGPSYGEDVSNTTTAQKRKCSQTQCPRKVIKMESEEGKEARLARSSPEQPRPSTSKAVSPPHLDGPPSPRSPVIGSEVFLPNSNHVASGAGEAEERVVVISSSEDSDAENSSSRELDDSSSESSDLQLEGPSTLRVLDENLADPQAEDRPLVFFDLKIDNETQKISQLAAVNRESKFRVVIQPEAFFSIYSKAVSLEVGLQHFLSFLSSMRRPILACYKLWGPGLPNFFRALEDINRLWEFQEAISGFLAALPLIRERVPGASSFKLKNLAQTYLARNMSERSAMAAVLAMRDLCRLLEVSPGPQLAQHVYPFSSLQCFASLQPLVQAAVLPRAEARLLALHNVSFMELLSAHRRDRQGGLKKYSRYLSLQTTTLPPAQPAFNLQALGTYFEGLLEGPALARAEGVSTPLAGRGLAERASQQS [PML]
HeLa Kyoto [1]; cell cycle stage: G1/S
  melting temperature: 50.3 °C
HeLa Kyoto [1]; cell cycle stage: mitosis
  melting temperature: 50.5 °C
HeLa Kyoto [2]
  solubility change mitosis (log2): 0.33
HeLa Kyoto [3]; [5]
  thermal stability score: -0.223
HeLa Kyoto [3]; cell cycle stage: mitosis
  thermal stability score: 2.23
HeLa Kyoto [4]
  solubility in G1/S (log2): -0.134

## MEPEAPRRRHTHQRGYLLTRNPHLNKDLAFTLEERQQLNIHGLLPPSFNSQEIQVLRVVKNFEHLNSDFDRYLLLMDLQDRNEKLFYRVLTSDIEKFMPIVYTPTVGLACQQYSLVFRKPRGLFITIHDRGHIASVLNAWPEDVIKAIVVTDGERILGLGDLGCNGMGIPVGKLALYTACGGMNPQECLPVILDVGTENEELLKDPLYIGLRQRRVRGSEYDDFLDEFMEAVSSKYGMNCLIQFEDFANVNAFRLLNKYRNQYCTFNDDIQGTASVAVAGLLAALRITKNKLSDQTILFQGAGEAALGIAHLIVMALEKEGLPKEKAIKKIWLVDSKGLIVKGRASLTQEKEKFAHEHEEMKNLEAIVQEIKPTALIGVAAIGGAFSEQILKDMAAFNERPIIFALSNPTSKAECSAEQCYKITKGRAIFASGSPFDPVTLPNGQTLYPGQGNNSYVFPGVALGVVACGLRQITDNIFLTTAEVIAQQVSDKHLEEGRLYPPLNTIRDVSLKIAEKIVKDAYQEKTATVYPEPQNKEAFVRSQMYSTDYDQILPDCYSWPEEVQKIQTKVDQ [ME1]
HeLa Kyoto [1]; cell cycle stage: G1/S
  melting temperature: 56.5 °C
HeLa Kyoto [1]; cell cycle stage: mitosis
  melting temperature: 56.7 °C
HeLa Kyoto [2]
  solubility change mitosis (log2): -0.171
HeLa Kyoto [3]; [5]
  thermal stability score: -1.35
HeLa Kyoto [3]; cell cycle stage: mitosis
  thermal stability score: -1.4
HeLa Kyoto [4]
  solubility in G1/S (log2): 0.144

## MEPEPEPAAVEVPAGRVLSARELFAARSRSQKLPQRSHGPKDFLPDGSAAQAERLRRCREELWQLLAEQRVERLGSLVAAEWRPEEGFVELKSPAGKFWQTMGFSEQGRQRLHPEEALYLLECGSIHLFHQDLPLSIQEAYQLLLTDHTVTFLQYQVFSHLKRLGYVVRRFQPSSVLSPYERQLNLDASVQHLEDGDGKRKRSSSSPRSINKKAKALDNSLQPKSLAASSPPPCSQPSQCPEEKPQESSPMKGPGGPFQLLGSLGPSPGPAREGVGCSWESGRAENGVTGAGKRRWNFEQISFPNMASDSRHTLLRAPAPELLPANVAGRETDAESWCQKLNQRKEKLSRREREHHAEAAQFQEDVNADPEVQRCSSWREYKELLQRRQVQRSQRRAPHLWGQPVTPLLSPGQASSPAVVLQHISVLQTTHLPDGGARLLEKSGGLEIIFDVYQADAVATFRKNNPGKPYARMCISGFDEPVPDLCSLKRLSYQSGDVPLIFALVDHGDISFYSFRDFTLPQDVGH [TSEN54]
HeLa Kyoto [1]; cell cycle stage: G1/S
  melting temperature: 48.8 °C
HeLa Kyoto [1]; cell cycle stage: mitosis
  melting temperature: 50 °C
HeLa Kyoto [2]
  solubility change mitosis (log2): -0.153
HeLa Kyoto [3]; [5]
  thermal stability score: 0.317
HeLa Kyoto [3]; cell cycle stage: mitosis
  thermal stability score: 0.466
HeLa Kyoto [4]
  solubility in G1/S (log2): 0.322
